Source: patent US20060052301A1, “Splice variants of peptide YY, neuropeptide Y, pancreatic peptide Y and Amylin, and uses thereof” (priority 2004, published 2006)

B1: Amylin: 37-amino acid monomeric polypeptide hormone co-secreted with insulin from pancreatic beta cells (peptide, listed as Homo sapiens)
chain: MGILKLQVFLIVLSVALNHLKATPIESHQVEKRKCNTATCATQRLANFLVHSSNNFGAILSSTNVGSNTYGKRNAVEVLKREPLNYLPL

What was measured:
[1] = In-vitro stability study in acetate buffer (Alzet pump model, HPLC); type: physicochemical; conditions: 20 mM acetate buffer pH 4.0, 37° C., 28 days
Protocol: (Alzet in-vitro protocol, DURECT Corporation, Calif., USA) following the analysis of the solutions by HPLC.
In all the cases 2 or 3 different experiments were carried out.

ob/ob female mice = test: Treatment effects on body weight and food intake, continuous infusion by Alzet mini-osmotic pump; type: in vivo; conditions: 300 or 1000 μg/Kg/day
Protocol: Assessment of potential treatment effect on body weight and food intake by PYY variants of the present invention is performed under blinded conditions. The test system includes 40 ob/ob female mice, each about 50 g & 12 weeks of age at study initiation, in 5 groups (n=8), housed 4 per cage.
The first week, representing the first stage of the experiment, is the first acclimatization stage, when the 12 hours light and dark cycles regime is applied at the same hours of the day (light cycle is between 6:30-18:30). The viability check and clinical signs observations are checked daily.
The second week of the experiment, is the second acclimatization stage, when the same 12 hours/12 hours light and dark cycles regime is applied. At this stage, every day at the same time each day, the following parameters are assessed: daily viability check and clinical signs observations, including for example, changes in skin, fur, eyes, mucous membranes, secretions, activity and response to handling, as well as any unusual behavior, sleep and coma; body weight measurement 3 times/week; and food consumption measurement 1 time/daily for 5 days a week.
The third stage, days 15-43 (weeks 3-6 of the experiment), is the test compound administration stage.
On day 15, an Alzet mini-osmotic pump (model 2004), is surgically inserted into each test animal, under general anesthesia. […]

[2] = in rats, in rabbits, and in humans with Paget's disease; cited from earlier work

Molecule	Purity (%) (average ± stdev) ([1]; high dose (PYY[3-36] 10.6 mg/ml; PYY variant [3-42] 12.8 mg/ml))	Purity (%) (average ± stdev) ([1]; low dose (PYY[3-36] 3.3 mg/ml; PYY variant [3-42] 3.9 mg/ml))	body weight gain (ob/ob female mice; 28 days, versus control group)	food intake (ob/ob female mice; especially during the first days of the study)	lowering of plasma calcium [2]
PYY variant: PYY splice variant skipping exon 3, residues 3-42, SEQ ID NO:75; lacks last Tyr, adds 7 C-terminal residues SEGPDLW	72.3 ± 0.2	69.2 ± 0.6	gain significantly less weight than the control group	significant effect of reduction in the food intake	–
B1	–	–	–	–	up to 20%
